# Test results reported in patent US20260209293A1 (Novo Nordisk, published 2026).
# *1 amine or outer side, *2 acyl side, *3 side chain or, on linkers, in order; H or OH if unused. The star is where a group is joined. C20 diacid = O=C(O)CCCCCCCCCCCCCCCCCCC(=O)*; C18 diacid = O=C(O)CCCCCCCCCCCCCCCCC(=O)*; γGlu = O=C(O)[C@H](CCC(=O)[*:2])N[*:1]
# T1: human calcitonin receptor (a) (human, UniProt P30988 25-474)
# T1 sequence (looked up): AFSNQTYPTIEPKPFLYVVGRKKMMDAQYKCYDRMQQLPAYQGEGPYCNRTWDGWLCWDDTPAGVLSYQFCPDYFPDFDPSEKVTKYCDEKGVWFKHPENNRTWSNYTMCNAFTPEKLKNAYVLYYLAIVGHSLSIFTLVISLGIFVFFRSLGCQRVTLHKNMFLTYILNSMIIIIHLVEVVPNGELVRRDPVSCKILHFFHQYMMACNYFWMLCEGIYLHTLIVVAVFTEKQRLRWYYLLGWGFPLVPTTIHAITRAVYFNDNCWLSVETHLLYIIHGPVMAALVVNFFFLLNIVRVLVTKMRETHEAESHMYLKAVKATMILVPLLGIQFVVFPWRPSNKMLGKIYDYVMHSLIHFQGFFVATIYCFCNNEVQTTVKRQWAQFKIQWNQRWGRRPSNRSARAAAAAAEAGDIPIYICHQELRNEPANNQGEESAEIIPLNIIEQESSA
# T2: human amylin-3(a) receptor (human, UniProt P30988 25-474; O60896 24-148)
# T2 sequence (looked up) 1: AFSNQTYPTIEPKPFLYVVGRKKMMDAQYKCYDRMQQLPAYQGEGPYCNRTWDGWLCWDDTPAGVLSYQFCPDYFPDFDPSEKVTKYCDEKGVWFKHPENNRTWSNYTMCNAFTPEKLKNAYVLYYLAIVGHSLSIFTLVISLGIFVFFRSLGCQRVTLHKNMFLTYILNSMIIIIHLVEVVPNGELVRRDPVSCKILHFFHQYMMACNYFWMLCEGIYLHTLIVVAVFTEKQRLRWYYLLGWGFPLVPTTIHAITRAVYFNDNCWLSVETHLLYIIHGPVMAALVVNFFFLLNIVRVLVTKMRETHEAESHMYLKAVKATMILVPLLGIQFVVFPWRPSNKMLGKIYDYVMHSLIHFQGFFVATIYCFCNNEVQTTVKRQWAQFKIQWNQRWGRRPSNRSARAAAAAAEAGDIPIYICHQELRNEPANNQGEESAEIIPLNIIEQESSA
# T2 sequence (looked up) 2: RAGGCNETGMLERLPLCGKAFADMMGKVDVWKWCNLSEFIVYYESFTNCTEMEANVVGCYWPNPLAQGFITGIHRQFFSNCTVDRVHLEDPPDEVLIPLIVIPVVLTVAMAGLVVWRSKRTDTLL
# Tests used:
# [1] = target: T1, human calcitonin receptor (a); assay: cell-based or functional assay
# [2] = target: T2, human amylin-3(a) receptor; assay: cell-based or functional assay
binder,measurement,setting,value
{C18 diacid-γGlu-γGlu}-ASHLSTAQTQRLAEFLHHSSDPFGAIPSSTDVGPDTP-NH2 (SMILES CC[C@H](C)[C@H](NC(=O)[C@H](C)NC(=O)CNC(=O)[C@H](Cc1ccccc1)NC(=O)[C@@H]1CCCN1C(=O)[C@H](CC(=O)O)NC(=O)[C@H](CO)NC(=O)[C@H](CO)NC(=O)[C@H](Cc1c[nH]cn1)NC(=O)[C@H](Cc1c[nH]cn1)NC(=O)[C@H](CC(C)C)NC(=O)[C@H](Cc1ccccc1)NC(=O)[C@H](CCC(=O)O)NC(=O)[C@H](C)NC(=O)[C@H](CC(C)C)NC(=O)[C@H](CCCNC(=N)N)NC(=O)[C@H](CCC(N)=O)NC(=O)[C@@H](NC(=O)[C@H](CCC(N)=O)NC(=O)[C@H](C)NC(=O)[C@@H](NC(=O)[C@H](CO)NC(=O)[C@H](CC(C)C)NC(=O)[C@H](Cc1c[nH]cn1)NC(=O)[C@H](CO)NC(=O)[C@H](C)NC(=O)CC[C@H](NC(=O)CC[C@H](NC(=O)CCCCCCCCCCCCCCCCC(=O)O)C(=O)O)C(=O)O)[C@@H](C)O)[C@@H](C)O)C(=O)N1CCC[C@H]1C(=O)N[C@@H](CO)C(=O)N[C@@H](CO)C(=O)N[C@H](C(=O)N[C@@H](CC(=O)O)C(=O)N[C@H](C(=O)NCC(=O)N1CCC[C@H]1C(=O)N[C@@H](CC(=O)O)C(=O)N[C@H](C(=O)N1CCC[C@H]1C(N)=O)[C@@H](C)O)C(C)C)[C@@H](C)O),"hCalcR potency, EC50 (pM); CRE-luciferase reporter in BHK cells",[1],1.68 pM
same,"hAmyR3 potency, EC50 (pM); CRE-luciferase reporter in BHK cells",[2],2.18 pM
{C18 diacid-γGlu}-AGSLSTAQTQRLAEFLHHSSDPFGAIPSSTDVGPDTP-NH2 (SMILES CC[C@H](C)[C@H](NC(=O)[C@H](C)NC(=O)CNC(=O)[C@H](Cc1ccccc1)NC(=O)[C@@H]1CCCN1C(=O)[C@H](CC(=O)O)NC(=O)[C@H](CO)NC(=O)[C@H](CO)NC(=O)[C@H](Cc1c[nH]cn1)NC(=O)[C@H](Cc1c[nH]cn1)NC(=O)[C@H](CC(C)C)NC(=O)[C@H](Cc1ccccc1)NC(=O)[C@H](CCC(=O)O)NC(=O)[C@H](C)NC(=O)[C@H](CC(C)C)NC(=O)[C@H](CCCNC(=N)N)NC(=O)[C@H](CCC(N)=O)NC(=O)[C@@H](NC(=O)[C@H](CCC(N)=O)NC(=O)[C@H](C)NC(=O)[C@@H](NC(=O)[C@H](CO)NC(=O)[C@H](CC(C)C)NC(=O)[C@H](CO)NC(=O)CNC(=O)[C@H](C)NC(=O)CC[C@H](NC(=O)CCCCCCCCCCCCCCCCC(=O)O)C(=O)O)[C@@H](C)O)[C@@H](C)O)C(=O)N1CCC[C@H]1C(=O)N[C@@H](CO)C(=O)N[C@@H](CO)C(=O)N[C@H](C(=O)N[C@@H](CC(=O)O)C(=O)N[C@H](C(=O)NCC(=O)N1CCC[C@H]1C(=O)N[C@@H](CC(=O)O)C(=O)N[C@H](C(=O)N1CCC[C@H]1C(N)=O)[C@@H](C)O)C(C)C)[C@@H](C)O),"hCalcR potency, EC50 (pM); CRE-luciferase reporter in BHK cells",[1],1.49 pM
same,"hAmyR3 potency, EC50 (pM); CRE-luciferase reporter in BHK cells",[2],1.44 pM
{C18 diacid-γGlu}-ASHLSTAQTQRLAEFLHHSSDPFGAIPSSTDVGPDTP-NH2 (SMILES CC[C@H](C)[C@H](NC(=O)[C@H](C)NC(=O)CNC(=O)[C@H](Cc1ccccc1)NC(=O)[C@@H]1CCCN1C(=O)[C@H](CC(=O)O)NC(=O)[C@H](CO)NC(=O)[C@H](CO)NC(=O)[C@H](Cc1c[nH]cn1)NC(=O)[C@H](Cc1c[nH]cn1)NC(=O)[C@H](CC(C)C)NC(=O)[C@H](Cc1ccccc1)NC(=O)[C@H](CCC(=O)O)NC(=O)[C@H](C)NC(=O)[C@H](CC(C)C)NC(=O)[C@H](CCCNC(=N)N)NC(=O)[C@H](CCC(N)=O)NC(=O)[C@@H](NC(=O)[C@H](CCC(N)=O)NC(=O)[C@H](C)NC(=O)[C@@H](NC(=O)[C@H](CO)NC(=O)[C@H](CC(C)C)NC(=O)[C@H](Cc1c[nH]cn1)NC(=O)[C@H](CO)NC(=O)[C@H](C)NC(=O)CC[C@H](NC(=O)CCCCCCCCCCCCCCCCC(=O)O)C(=O)O)[C@@H](C)O)[C@@H](C)O)C(=O)N1CCC[C@H]1C(=O)N[C@@H](CO)C(=O)N[C@@H](CO)C(=O)N[C@H](C(=O)N[C@@H](CC(=O)O)C(=O)N[C@H](C(=O)NCC(=O)N1CCC[C@H]1C(=O)N[C@@H](CC(=O)O)C(=O)N[C@H](C(=O)N1CCC[C@H]1C(N)=O)[C@@H](C)O)C(C)C)[C@@H](C)O),"hCalcR potency, EC50 (pM); CRE-luciferase reporter in BHK cells",[1],1.44 pM
same,"hAmyR3 potency, EC50 (pM); CRE-luciferase reporter in BHK cells",[2],1.5 pM
{C20 diacid-γGlu}-ASHLSTAQTARLAEFLHHSSDNFGPILPPTDVGSNTP-NH2 (SMILES CC[C@H](C)[C@H](NC(=O)[C@@H]1CCCN1C(=O)CNC(=O)[C@H](Cc1ccccc1)NC(=O)[C@H](CC(N)=O)NC(=O)[C@H](CC(=O)O)NC(=O)[C@H](CO)NC(=O)[C@H](CO)NC(=O)[C@H](Cc1c[nH]cn1)NC(=O)[C@H](Cc1c[nH]cn1)NC(=O)[C@H](CC(C)C)NC(=O)[C@H](Cc1ccccc1)NC(=O)[C@H](CCC(=O)O)NC(=O)[C@H](C)NC(=O)[C@H](CC(C)C)NC(=O)[C@H](CCCNC(=N)N)NC(=O)[C@H](C)NC(=O)[C@@H](NC(=O)[C@H](CCC(N)=O)NC(=O)[C@H](C)NC(=O)[C@@H](NC(=O)[C@H](CO)NC(=O)[C@H](CC(C)C)NC(=O)[C@H](Cc1c[nH]cn1)NC(=O)[C@H](CO)NC(=O)[C@H](C)NC(=O)CC[C@H](NC(=O)CCCCCCCCCCCCCCCCCCC(=O)O)C(=O)O)[C@@H](C)O)[C@@H](C)O)C(=O)N[C@@H](CC(C)C)C(=O)N1CCC[C@H]1C(=O)N1CCC[C@H]1C(=O)N[C@H](C(=O)N[C@@H](CC(=O)O)C(=O)N[C@H](C(=O)NCC(=O)N[C@@H](CO)C(=O)N[C@@H](CC(N)=O)C(=O)N[C@H](C(=O)N1CCC[C@H]1C(N)=O)[C@@H](C)O)C(C)C)[C@@H](C)O),"hCalcR potency, EC50 (pM); CRE-luciferase reporter in BHK cells",[1],1.31 pM
same,"hAmyR3 potency, EC50 (pM); CRE-luciferase reporter in BHK cells",[2],0.77 pM
{C20 diacid-γGlu}-ASHLSTAQTQRLAEFLHHSSDPFGAIPSSTDVGPDTP-NH2 (SMILES CC[C@H](C)[C@H](NC(=O)[C@H](C)NC(=O)CNC(=O)[C@H](Cc1ccccc1)NC(=O)[C@@H]1CCCN1C(=O)[C@H](CC(=O)O)NC(=O)[C@H](CO)NC(=O)[C@H](CO)NC(=O)[C@H](Cc1c[nH]cn1)NC(=O)[C@H](Cc1c[nH]cn1)NC(=O)[C@H](CC(C)C)NC(=O)[C@H](Cc1ccccc1)NC(=O)[C@H](CCC(=O)O)NC(=O)[C@H](C)NC(=O)[C@H](CC(C)C)NC(=O)[C@H](CCCNC(=N)N)NC(=O)[C@H](CCC(N)=O)NC(=O)[C@@H](NC(=O)[C@H](CCC(N)=O)NC(=O)[C@H](C)NC(=O)[C@@H](NC(=O)[C@H](CO)NC(=O)[C@H](CC(C)C)NC(=O)[C@H](Cc1c[nH]cn1)NC(=O)[C@H](CO)NC(=O)[C@H](C)NC(=O)CC[C@H](NC(=O)CCCCCCCCCCCCCCCCCCC(=O)O)C(=O)O)[C@@H](C)O)[C@@H](C)O)C(=O)N1CCC[C@H]1C(=O)N[C@@H](CO)C(=O)N[C@@H](CO)C(=O)N[C@H](C(=O)N[C@@H](CC(=O)O)C(=O)N[C@H](C(=O)NCC(=O)N1CCC[C@H]1C(=O)N[C@@H](CC(=O)O)C(=O)N[C@H](C(=O)N1CCC[C@H]1C(N)=O)[C@@H](C)O)C(C)C)[C@@H](C)O),"hCalcR potency, EC50 (pM); CRE-luciferase reporter in BHK cells",[1],1.25 pM
same,"hAmyR3 potency, EC50 (pM); CRE-luciferase reporter in BHK cells",[2],0.86 pM
{C20 diacid-γGlu}-AGHLSTAQTQRLAEFLHHSSDPFGAIPSSTDVGPDTP-NH2 (SMILES CC[C@H](C)[C@H](NC(=O)[C@H](C)NC(=O)CNC(=O)[C@H](Cc1ccccc1)NC(=O)[C@@H]1CCCN1C(=O)[C@H](CC(=O)O)NC(=O)[C@H](CO)NC(=O)[C@H](CO)NC(=O)[C@H](Cc1c[nH]cn1)NC(=O)[C@H](Cc1c[nH]cn1)NC(=O)[C@H](CC(C)C)NC(=O)[C@H](Cc1ccccc1)NC(=O)[C@H](CCC(=O)O)NC(=O)[C@H](C)NC(=O)[C@H](CC(C)C)NC(=O)[C@H](CCCNC(=N)N)NC(=O)[C@H](CCC(N)=O)NC(=O)[C@@H](NC(=O)[C@H](CCC(N)=O)NC(=O)[C@H](C)NC(=O)[C@@H](NC(=O)[C@H](CO)NC(=O)[C@H](CC(C)C)NC(=O)[C@H](Cc1c[nH]cn1)NC(=O)CNC(=O)[C@H](C)NC(=O)CC[C@H](NC(=O)CCCCCCCCCCCCCCCCCCC(=O)O)C(=O)O)[C@@H](C)O)[C@@H](C)O)C(=O)N1CCC[C@H]1C(=O)N[C@@H](CO)C(=O)N[C@@H](CO)C(=O)N[C@H](C(=O)N[C@@H](CC(=O)O)C(=O)N[C@H](C(=O)NCC(=O)N1CCC[C@H]1C(=O)N[C@@H](CC(=O)O)C(=O)N[C@H](C(=O)N1CCC[C@H]1C(N)=O)[C@@H](C)O)C(C)C)[C@@H](C)O),"hCalcR potency, EC50 (pM); CRE-luciferase reporter in BHK cells",[1],1.81 pM
same,"hAmyR3 potency, EC50 (pM); CRE-luciferase reporter in BHK cells",[2],1.68 pM
